Laboratory results from patent publication US20200138870A1, “RECREATION OF PANCREATIC NICHE ALLOWS FOR NOVEL METHODS FOR HUMAN, MATURE BETA DERIVATION FROM PLURIPOTENT STEM CELLS” (Baylor College of Medicine, priority 2016, published 2020).

Test system: hESC-derived EPs
Assay: Growth factor treatment of hESC-derived EPs for 3 days, immunofluorescence quantification of marker-positive cells
Assay type: cell-based, human
Conditions: for increase in number of ISL1+ cells: high concentration treatment; for INS+ cell numbers (in words): two concentrations
Method: hESC, ISL1-EGFP Hues8 and H1, were maintained under a feeder-free system on Geltrex (Invitrogen) in TeSR-E8 media (Stemcell Technologies). Cells were passaged at 70-80% confluence using TrypLE (Invitrogen). After dissociation, cells were seeded in TeSR-E8 media+10 μM Y-27632 for 24h. Differentiation was started when cells were 90% confluent. The following media and growth factors/small molecules (see also Table 3) were used: Day1: MCDB-131 media with 0.1% BSA+10 mM glucose+ActivinA and CHIR99021. Day2-3: MCDB-131 media+0.1% BSA+10 mM glucose+ActivinA. Day4-5: MCDB-131+0.1% BSA, 10 mM glucose, VitC+KGF. Day6-9: MCDB-131 2% BSA+5.5 mM glucose+Vit.C+ITS (Invitrogen)+ActivinA+KGF+RA+SANT-1+Noggin. Day10-12: MCDB-131+2% BSA+5.5 mM glucose+VitC+ITS+SANT-1+Noggin+PdBU. Day13-15: MCDB-131+2% BSA+5.5 mM glucose+VitC+ITS+Noggin+AlK5i. EPs were dissociated and seeded as 25,000 cells/well on Geltrex-coated 96-well plates in DMEM media (Invitrogen) with B27 Supplement (Thermo Fisher Scientific), later called B27 media, supplemented with 10 µM Y-27632 for 24h. Growth factors (Table 3) were added to B27 media, at two concentrations, and tested on EPs for 3 days. After 3 days, cells were PBS washed, fixed with 4% PFA/PBS for 20 min at room temperature (RT), washed twice with PBS and stained.
Cells were incubated with 5% donkey serum (Jackson ImmunoResearch Laboratories) in PBST (PBS+0.1% Triton-X) for 30 min to avoid nonspecific binding of the antibody and to permeabilize the cells. Primary antibodies, diluted in 5% donkey serum in PBST, were then added and incubated at 4° C. overnight with shaking. After primary antibody incubation, cells were washed 3 times with PBST and secondary antibodies conjugated with Alexa-Fluor Dyes (Jackson ImmunoResearch Laboratories) and diluted in 5% donkey serum in PBST were added to the cells for 30 min at RT. Then, cells were thrice washed with PBST and nuclei were stained with Dapi (Roche Diagnostics). For imaging, Leica DMI6000 or confocal Leica TCS SPE was used. Images were initially processed by LAS X software and then further analyzed and quantified using ImageJ software (NIH, W Rasband, http://rsb.info.nih.gov/ij) using cell counter plug-in. Typically, at least 5 randomly selected images were counted per condition.

[1] = 200 ng/ml Gremlin1, 3 days, vs untreated

Molecule	effect on the number of CHGA+ and INS+ cells (in words) (3 days treatment of EPs)	increase in number of ISL1+ cells (3 days)	numbers of ISL1-eGFP, CHGA+, INS+ and C-peptide+ cells over untreated controls (in words) (3 days treatment of EPs)	also measured
HGF: growth factor (R&D), 50 or 100 ng/ml	little or no effect	~2 fold		
IGF: growth factor (R&D), 10 or 50 ng/ml	little or no effect	~2 fold		
THBS2: growth factor (R&D), 5 or 1 μg/ml	little or no effect	~2 fold		
WNT5B: a WNT5A paralog (protein, UniProt Q9H1J7 18-359, looked up) Protein Wnt-5b: QLLTDANSWWSLALNPVQRPEMFIIGAQPVCSQLPGLSPGQRKLCQLYQEHMAYIGEGAKTGIKECQHQFRQRRWNCSTADNASVFGRVMQIGSRETAFTHAVSAAGVVNAISRACREGELSTCGCSRTARPKDLPRDWLWGGCGDNVEYGYRFAKEFVDAREREKNFAKGSEEQGRVLMNLQNNEAGRRAVYKMADVACKCHGVSGSCSLKTCWLQLAEFRKVGDRLKEKYDSAAAMRVTRKGRLELVNSRFTQPTPEDLVYVDPSPDYCLRNESTGSLGTQGRLCNKTSEGMDGCELMCCGRGYNQFKSVQVERCHCKFHWCCFVRCKKCTEIVDQYICK				INS+ cell numbers (in words) (3 days treatment of EPs): increased INS+ cell numbers in a dose-dependent manner
Gremlin1: a BMP antagonist upregulated in Wk17.5h and 20.1 M-E primary cells (protein, UniProt O60565 25-184, looked up) Gremlin-1: KKKGSQGAIPPPDKAQHNDSEQTQSPQQPGSRNRGRGQGRGTAMPGEEVLESSQEALHVTERKYLKRDWCKTQPLKQTIHEEGCNSRTIINRFCYGQCNSFYIPRHIRKEEGSFQSCSFCKPKKFTTMMVTLNCPELQPPTKKKRVTRVKQCRCISIDLD				increase in CHGA+ cell numbers [1]: 5 fold; increase in INS+ cell numbers [1]: 5 fold; decrease in the number of GCG+ cells (3-day EP treatment, vs untreated control): 3 fold
Endocan: niche-derived secreted factor (R&D), 1 or 5 ng/ml (protein, UniProt Q9NQ30 20-184, looked up) Endothelial cell-specific …: WSNNYAVDCPQHCDSSECKSSPRCKRTVLDDCGCCRVCAAGRGETCYRTVSGMDGMKCGPGLRCQPSNGEDPFGEEFGICKDCPYGTFGMDCRETCNCQSGICDRGTGKCLKFPFFQYSVTKSSNRFVSLTEHDMASGDGNIVREEVVKENAAGSPVMRKWLNPR			increased	number of CHGA+ cells (in words) (3 days treatment of EPs): significant increase; INS+ cell numbers (in words) (3 days treatment of EPs): moderate effect
PDPN: podoplanin, a mucin-type transmembrane glycoprotein (protein, UniProt Q86YL7 23-162, looked up) Podoplanin: ASTGQPEDDTETTGLEGGVAMPGAEDDVVTPGTSEDRYKSGLTTLVATSVNSVTGIRIEDLPTSESTVHAQEQSPSATASNVATSHSTEKVDGDTQTTVEKDGLSTVTLVGIIVGVLLAIGFIGAIIVVVMRKMSGRYSP			increased	increase in number of CHGA+ cells (high concentration, 3 days): 3 fold; increase in number of INS+ cells (high concentration, 3 days): 3 fold
SERPINF1: niche-derived secreted factor (R&D), 500 ng/ml or 1 μg/ml (protein, UniProt P36955 20-418, looked up) Pigment epithelium-derived …: QNPASPPEEGSPDPDSTGALVEEEDPFFKVPVNKLAAAVSNFGYDLYRVRSSTSPTTNVLLSPLSVATALSALSLGAEQRTESIIHRALYYDLISSPDIHGTYKELLDTVTAPQKNLKSASRIVFEKKLRIKSSFVAPLEKSYGTRPRVLTGNPRLDLQEINNWVQAQMKGKLARSTKEIPDEISILLLGVAHFKGQWVTKFDSRKTSLEDFYLDEERTVRVPMMSDPKAVLRYGLDSDLSCKIAQLPLTGSMSIIFFLPLKVTQNLTLIEESLTSEFIHDIDRELKTVQAVLTVPKLKLSYEGEVTKSLQEMKLQSLFDSPDFSKITGKPIKLTQVEHRAGFEWNEDGAGTTPSPGLQPAHLTFPLDYHLNQPFIFVLRDTDTGALLFIGKILDPRGP			increased	
